For orientation: Kd means the constant that tells how readily two partners part at equilibrium.

The target in experiment [1] is WT mCD1d cytoplasmic tail peptide (…) (mouse). The experiment is described as follows: SPR. Background: In SPR one partner is held on a chip, and binding of the other changes the refractive index at the surface.
The target of experiment [2] is mutant mCD1d cytoplasmic tail peptide (…), tyrosine substituted for alanine (mouse). The experiment is described as follows: SPR.

For “adaptor protein complex 3 (AP-3) purified from pig brain cytosol”, the Kd in experiment [1] stood at 540 nM; in experiment [2], 2630 nM.
